# Target: SUFU (UniProt Q9UMX1)
# Assay: co-immunoprecipitation (assumed)
# Settings: reference: GLI1-WT; sites S201,S204,S243
substance,measurement,value
GLI1 (from UniProt P08151) GLI1-S201/204/243A,binding against the reference,weaker

# — article PMC6041257
